This passage reports EC50 of adenylate cyclase stimulation (cAMP) results from patent US6723841.

Assay [1] has as its target T1, human CRF2α receptor (human) (UniProt Q13324).
T1 sequence: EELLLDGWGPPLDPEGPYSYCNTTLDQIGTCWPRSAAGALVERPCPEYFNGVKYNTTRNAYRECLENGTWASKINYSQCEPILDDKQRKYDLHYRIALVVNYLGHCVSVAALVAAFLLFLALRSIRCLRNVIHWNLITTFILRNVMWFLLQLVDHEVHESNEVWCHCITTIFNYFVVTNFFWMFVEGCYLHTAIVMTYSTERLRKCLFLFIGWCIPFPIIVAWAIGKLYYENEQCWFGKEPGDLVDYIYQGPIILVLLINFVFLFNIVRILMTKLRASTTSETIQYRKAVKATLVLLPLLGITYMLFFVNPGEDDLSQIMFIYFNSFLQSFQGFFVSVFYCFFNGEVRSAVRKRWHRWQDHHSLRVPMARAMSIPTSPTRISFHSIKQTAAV
The assay is described as follows: cell-based or functional assay.

In assay [2] the target is human CRF1 receptor (human) (UniProt P34998). The assay is described as follows: cell-based or functional assay.
Sequence of human CRF1 receptor (human) (P34998 24-415): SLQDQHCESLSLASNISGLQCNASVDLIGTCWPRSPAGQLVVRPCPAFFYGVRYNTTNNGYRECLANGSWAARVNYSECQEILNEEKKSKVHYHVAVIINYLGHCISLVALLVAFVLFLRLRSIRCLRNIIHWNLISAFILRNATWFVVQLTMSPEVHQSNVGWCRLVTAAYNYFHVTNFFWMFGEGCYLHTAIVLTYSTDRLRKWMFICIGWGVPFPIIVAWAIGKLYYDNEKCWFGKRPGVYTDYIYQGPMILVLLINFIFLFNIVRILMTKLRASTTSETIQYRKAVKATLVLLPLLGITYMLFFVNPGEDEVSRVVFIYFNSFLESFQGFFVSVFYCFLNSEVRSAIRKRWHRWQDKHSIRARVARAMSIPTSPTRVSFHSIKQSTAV

Take “Gly41 r/hCRF-OH (from UniProt P06850 154-194) (peptide)”: the EC50 of adenylate cyclase stimulation (cAMP) in assay [1] is > 1000 nM; in assay [2] it was 800 nM.

Take Urotensin I (peptide): the EC50 of adenylate cyclase stimulation (cAMP) is 2 nM in assay [1] and 4 nM in assay [2].

In the case of α-helical oCRF(9-41) (peptide), the EC50 of adenylate cyclase stimulation (cAMP) in assay [1] and in assay [2] was > 1000 nM throughout.
